Data published in patent US20180009871A1 (INTARCIA THERAPEUTICS, published 2018).
Where no end group is shown, it is not given here. [ ]: non-standard residue; d: D form. Aib = CC(C)(N)C(=O)O

B1: Compound A75 (peptide)
peptide: WSHGTFTSDYSKYLD[Aib]KRAQEFV[Aib]WLEDEPSSGAPPPS-OH
modifications: N-terminus assumed
SMILES: CC(C)C[C@H](NC(=O)[C@H](Cc1ccc(O)cc1)NC(=O)[C@H](CCCCN)NC(=O)[C@H](CO)NC(=O)[C@H](Cc1ccc(O)cc1)NC(=O)[C@H](CC(=O)O)NC(=O)[C@H](CO)NC(=O)[C@@H](NC(=O)[C@H](Cc1ccccc1)NC(=O)[C@@H](NC(=O)CNC(=O)[C@H](Cc1c[nH]cn1)NC(=O)[C@H](CO)NC(=O)[C@@H](N)Cc1c[nH]c2ccccc12)[C@@H](C)O)[C@@H](C)O)C(=O)N[C@@H](CC(=O)O)C(=O)NC(C)(C)C(=O)N[C@@H](CCCCN)C(=O)N[C@@H](CCCNC(=N)N)C(=O)N[C@@H](C)C(=O)N[C@@H](CCC(N)=O)C(=O)N[C@@H](CCC(=O)O)C(=O)N[C@@H](Cc1ccccc1)C(=O)N[C@H](C(=O)NC(C)(C)C(=O)N[C@@H](Cc1c[nH]c2ccccc12)C(=O)N[C@@H](CC(C)C)C(=O)N[C@@H](CCC(=O)O)C(=O)N[C@@H](CC(=O)O)C(=O)N[C@@H](CCC(=O)O)C(=O)N1CCC[C@H]1C(=O)N[C@@H](CO)C(=O)N[C@@H](CO)C(=O)NCC(=O)N[C@@H](C)C(=O)N1CCC[C@H]1C(=O)N1CCC[C@H]1C(=O)N1CCC[C@H]1C(=O)N[C@@H](CO)C(=O)O)C(C)C
B2: Compound A77 (peptide)
peptide: YSHGTFTSDYSKYLD[Aib]KTAQEFV[Aib]WLEDEPSSGAPPPS-OH
modifications: N-terminus assumed
SMILES: CC(C)C[C@H](NC(=O)[C@H](Cc1ccc(O)cc1)NC(=O)[C@H](CCCCN)NC(=O)[C@H](CO)NC(=O)[C@H](Cc1ccc(O)cc1)NC(=O)[C@H](CC(=O)O)NC(=O)[C@H](CO)NC(=O)[C@@H](NC(=O)[C@H](Cc1ccccc1)NC(=O)[C@@H](NC(=O)CNC(=O)[C@H](Cc1c[nH]cn1)NC(=O)[C@H](CO)NC(=O)[C@@H](N)Cc1ccc(O)cc1)[C@@H](C)O)[C@@H](C)O)C(=O)N[C@@H](CC(=O)O)C(=O)NC(C)(C)C(=O)N[C@@H](CCCCN)C(=O)N[C@H](C(=O)N[C@@H](C)C(=O)N[C@@H](CCC(N)=O)C(=O)N[C@@H](CCC(=O)O)C(=O)N[C@@H](Cc1ccccc1)C(=O)N[C@H](C(=O)NC(C)(C)C(=O)N[C@@H](Cc1c[nH]c2ccccc12)C(=O)N[C@@H](CC(C)C)C(=O)N[C@@H](CCC(=O)O)C(=O)N[C@@H](CC(=O)O)C(=O)N[C@@H](CCC(=O)O)C(=O)N1CCC[C@H]1C(=O)N[C@@H](CO)C(=O)N[C@@H](CO)C(=O)NCC(=O)N[C@@H](C)C(=O)N1CCC[C@H]1C(=O)N1CCC[C@H]1C(=O)N1CCC[C@H]1C(=O)N[C@@H](CO)C(=O)O)C(C)C)[C@@H](C)O
B3: Compound A68 (peptide)
peptide: YSHGTFTSDYSKYLD[Aib]ARAQEFV[Aib]WLEDEPKSKEPPPS-NH2
modifications: N-terminus assumed
SMILES: CC(C)C[C@H](NC(=O)[C@H](Cc1ccc(O)cc1)NC(=O)[C@H](CCCCN)NC(=O)[C@H](CO)NC(=O)[C@H](Cc1ccc(O)cc1)NC(=O)[C@H](CC(=O)O)NC(=O)[C@H](CO)NC(=O)[C@@H](NC(=O)[C@H](Cc1ccccc1)NC(=O)[C@@H](NC(=O)CNC(=O)[C@H](Cc1c[nH]cn1)NC(=O)[C@H](CO)NC(=O)[C@@H](N)Cc1ccc(O)cc1)[C@@H](C)O)[C@@H](C)O)C(=O)N[C@@H](CC(=O)O)C(=O)NC(C)(C)C(=O)N[C@@H](C)C(=O)N[C@@H](CCCNC(=N)N)C(=O)N[C@@H](C)C(=O)N[C@@H](CCC(N)=O)C(=O)N[C@@H](CCC(=O)O)C(=O)N[C@@H](Cc1ccccc1)C(=O)N[C@H](C(=O)NC(C)(C)C(=O)N[C@@H](Cc1c[nH]c2ccccc12)C(=O)N[C@@H](CC(C)C)C(=O)N[C@@H](CCC(=O)O)C(=O)N[C@@H](CC(=O)O)C(=O)N[C@@H](CCC(=O)O)C(=O)N1CCC[C@H]1C(=O)N[C@@H](CCCCN)C(=O)N[C@@H](CO)C(=O)N[C@@H](CCCCN)C(=O)N[C@@H](CCC(=O)O)C(=O)N1CCC[C@H]1C(=O)N1CCC[C@H]1C(=O)N1CCC[C@H]1C(=O)N[C@@H](CO)C(N)=O)C(C)C
B4: Compound A67 (peptide)
peptide: YSHGTFTSDYSKYLD[Aib]ARAQEFV[Aib]WLEDEPKSKSPPPS-NH2
modifications: N-terminus assumed
SMILES: CC(C)C[C@H](NC(=O)[C@H](Cc1ccc(O)cc1)NC(=O)[C@H](CCCCN)NC(=O)[C@H](CO)NC(=O)[C@H](Cc1ccc(O)cc1)NC(=O)[C@H](CC(=O)O)NC(=O)[C@H](CO)NC(=O)[C@@H](NC(=O)[C@H](Cc1ccccc1)NC(=O)[C@@H](NC(=O)CNC(=O)[C@H](Cc1c[nH]cn1)NC(=O)[C@H](CO)NC(=O)[C@@H](N)Cc1ccc(O)cc1)[C@@H](C)O)[C@@H](C)O)C(=O)N[C@@H](CC(=O)O)C(=O)NC(C)(C)C(=O)N[C@@H](C)C(=O)N[C@@H](CCCNC(=N)N)C(=O)N[C@@H](C)C(=O)N[C@@H](CCC(N)=O)C(=O)N[C@@H](CCC(=O)O)C(=O)N[C@@H](Cc1ccccc1)C(=O)N[C@H](C(=O)NC(C)(C)C(=O)N[C@@H](Cc1c[nH]c2ccccc12)C(=O)N[C@@H](CC(C)C)C(=O)N[C@@H](CCC(=O)O)C(=O)N[C@@H](CC(=O)O)C(=O)N[C@@H](CCC(=O)O)C(=O)N1CCC[C@H]1C(=O)N[C@@H](CCCCN)C(=O)N[C@@H](CO)C(=O)N[C@@H](CCCCN)C(=O)N[C@@H](CO)C(=O)N1CCC[C@H]1C(=O)N1CCC[C@H]1C(=O)N1CCC[C@H]1C(=O)N[C@@H](CO)C(N)=O)C(C)C
B5: Compound A76 (peptide)
peptide: YSHGTFTSDYSKYLD[Aib]KAAQEFV[Aib]WLEDEPSSGAPPPS-OH
modifications: N-terminus assumed
SMILES: CC(C)C[C@H](NC(=O)[C@H](Cc1ccc(O)cc1)NC(=O)[C@H](CCCCN)NC(=O)[C@H](CO)NC(=O)[C@H](Cc1ccc(O)cc1)NC(=O)[C@H](CC(=O)O)NC(=O)[C@H](CO)NC(=O)[C@@H](NC(=O)[C@H](Cc1ccccc1)NC(=O)[C@@H](NC(=O)CNC(=O)[C@H](Cc1c[nH]cn1)NC(=O)[C@H](CO)NC(=O)[C@@H](N)Cc1ccc(O)cc1)[C@@H](C)O)[C@@H](C)O)C(=O)N[C@@H](CC(=O)O)C(=O)NC(C)(C)C(=O)N[C@@H](CCCCN)C(=O)N[C@@H](C)C(=O)N[C@@H](C)C(=O)N[C@@H](CCC(N)=O)C(=O)N[C@@H](CCC(=O)O)C(=O)N[C@@H](Cc1ccccc1)C(=O)N[C@H](C(=O)NC(C)(C)C(=O)N[C@@H](Cc1c[nH]c2ccccc12)C(=O)N[C@@H](CC(C)C)C(=O)N[C@@H](CCC(=O)O)C(=O)N[C@@H](CC(=O)O)C(=O)N[C@@H](CCC(=O)O)C(=O)N1CCC[C@H]1C(=O)N[C@@H](CO)C(=O)N[C@@H](CO)C(=O)NCC(=O)N[C@@H](C)C(=O)N1CCC[C@H]1C(=O)N1CCC[C@H]1C(=O)N1CCC[C@H]1C(=O)N[C@@H](CO)C(=O)O)C(C)C
B6: Compound A66 (peptide)
peptide: YSHGTFTSDYSKYLD[Aib]KRAQEFV[Aib]WLEDEPKSKSPPPS-NH2
modifications: N-terminus assumed
SMILES: CC(C)C[C@H](NC(=O)[C@H](Cc1ccc(O)cc1)NC(=O)[C@H](CCCCN)NC(=O)[C@H](CO)NC(=O)[C@H](Cc1ccc(O)cc1)NC(=O)[C@H](CC(=O)O)NC(=O)[C@H](CO)NC(=O)[C@@H](NC(=O)[C@H](Cc1ccccc1)NC(=O)[C@@H](NC(=O)CNC(=O)[C@H](Cc1c[nH]cn1)NC(=O)[C@H](CO)NC(=O)[C@@H](N)Cc1ccc(O)cc1)[C@@H](C)O)[C@@H](C)O)C(=O)N[C@@H](CC(=O)O)C(=O)NC(C)(C)C(=O)N[C@@H](CCCCN)C(=O)N[C@@H](CCCNC(=N)N)C(=O)N[C@@H](C)C(=O)N[C@@H](CCC(N)=O)C(=O)N[C@@H](CCC(=O)O)C(=O)N[C@@H](Cc1ccccc1)C(=O)N[C@H](C(=O)NC(C)(C)C(=O)N[C@@H](Cc1c[nH]c2ccccc12)C(=O)N[C@@H](CC(C)C)C(=O)N[C@@H](CCC(=O)O)C(=O)N[C@@H](CC(=O)O)C(=O)N[C@@H](CCC(=O)O)C(=O)N1CCC[C@H]1C(=O)N[C@@H](CCCCN)C(=O)N[C@@H](CO)C(=O)N[C@@H](CCCCN)C(=O)N[C@@H](CO)C(=O)N1CCC[C@H]1C(=O)N1CCC[C@H]1C(=O)N1CCC[C@H]1C(=O)N[C@@H](CO)C(N)=O)C(C)C

Target: human glucagon receptor (GCGR) (human, UniProt P47871 26-477)
Assay: cell-based or functional assay

B1 was tested. Which “hGCGR pEC50 (cAMP)” value did it give?
The value was 11.3 pEC50.

With B2 as the binder, how does the “hGCGR pEC50 (cAMP)” value read?
Its value is 11.5 pEC50.

For YSHGTFTSDYSKYLDSARAQEFVKWLEDEPKSKAPPPS-NH2 [Compound A74], which “hGCGR pEC50 (cAMP)” value is on record?
Its value is 11.6 pEC50.

For YSHGTFTSDYSKYLDSARAQEFVKWLEDEPKSKSPPPS-OH [Compound A70], which “hGCGR pEC50 (cAMP)” value is on record?
The value was 12 pEC50.

For YSHGTFTSDYSKYLDSARAQEFVKWLEDEPKSKAPPPS-OH [Compound A71], which “hGCGR pEC50 (cAMP)” value is on record?
The value was 11.7 pEC50.

With B3 as the binder, how does the “hGCGR pEC50 (cAMP)” value read?
The value was 11.3 pEC50.

YSHGTFTSDYSKYLDSARAQEFVKWLEDEPKSKSPPPS-NH2 [Compound A73] was tested. Which “hGCGR pEC50 (cAMP)” value did it give?
Its value is 11.7 pEC50.

With YSHGTFTSDYSKYLDSARAQEFVKWLEDEPKSKEPPPS-NH2 [Compound A72] as the binder, how does the “hGCGR pEC50 (cAMP)” value read?
The value was 12.1 pEC50.

B4 was tested. Which “hGCGR pEC50 (cAMP)” value did it give?
The value was 10.9 pEC50.

For B5, which “hGCGR pEC50 (cAMP)” value is on record?
The value was 12.7 pEC50.

Which “hGCGR pEC50 (cAMP)” value does the source give for YSHGTFTSDYSKYLDSARAQEFVKWLEDEPKSKEPPPS-OH [Compound A69] here?
Its value is 11.8 pEC50.

For B6, which “hGCGR pEC50 (cAMP)” value is on record?
The value was 12.5 pEC50.

Target: human GLP-1 receptor (GLP-1R) (human, UniProt P43220 24-463)
Assay: cell-based or functional assay

Chain of human GLP-1 receptor (GLP-1R) (P43220 24-463): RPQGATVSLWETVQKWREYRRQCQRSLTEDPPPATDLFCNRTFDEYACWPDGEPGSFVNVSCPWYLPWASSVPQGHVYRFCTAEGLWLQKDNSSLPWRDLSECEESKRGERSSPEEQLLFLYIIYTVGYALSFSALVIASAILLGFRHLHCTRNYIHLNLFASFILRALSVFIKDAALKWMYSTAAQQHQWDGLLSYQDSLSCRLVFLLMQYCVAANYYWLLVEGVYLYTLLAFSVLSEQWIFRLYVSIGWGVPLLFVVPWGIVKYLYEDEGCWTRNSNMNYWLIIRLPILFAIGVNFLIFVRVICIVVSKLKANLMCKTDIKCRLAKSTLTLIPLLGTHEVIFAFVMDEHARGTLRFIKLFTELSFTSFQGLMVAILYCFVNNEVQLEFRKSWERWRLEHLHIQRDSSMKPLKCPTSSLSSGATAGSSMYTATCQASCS

For B1, which “hGLP1 pEC50 (cAMP)” value is on record?
Its value is less than 9 pEC50.

With B2 as the binder, how does the “hGLP1 pEC50 (cAMP)” value read?
The value was less than 9 pEC50.

With YSHGTFTSDYSKYLDSARAQEFVKWLEDEPKSKAPPPS-NH2 [Compound A74] as the binder, how does the “hGLP1 pEC50 (cAMP)” value read?
The value was less than 9 pEC50.

For YSHGTFTSDYSKYLDSARAQEFVKWLEDEPKSKSPPPS-OH [Compound A70], which “hGLP1 pEC50 (cAMP)” value is on record?
Its value is less than 9 pEC50.

How did the “hGLP1 pEC50 (cAMP)” value turn out when YSHGTFTSDYSKYLDSARAQEFVKWLEDEPKSKAPPPS-OH [Compound A71] was run?
Its value is less than 9 pEC50.

B3 was tested. Which “hGLP1 pEC50 (cAMP)” value did it give?
The value was less than 9 pEC50.

Which “hGLP1 pEC50 (cAMP)” value does the source give for YSHGTFTSDYSKYLDSARAQEFVKWLEDEPKSKSPPPS-NH2 [Compound A73] here?
The value was less than 9 pEC50.

YSHGTFTSDYSKYLDSARAQEFVKWLEDEPKSKEPPPS-NH2 [Compound A72] was tested. Which “hGLP1 pEC50 (cAMP)” value did it give?
Its value is less than 9 pEC50.

Which “hGLP1 pEC50 (cAMP)” value does the source give for B4 here?
The value was less than 9 pEC50.

How did the “hGLP1 pEC50 (cAMP)” value turn out when B5 was run?
Its value is less than 9 pEC50.

YSHGTFTSDYSKYLDSARAQEFVKWLEDEPKSKEPPPS-OH [Compound A69] was tested. Which “hGLP1 pEC50 (cAMP)” value did it give?
The value was less than 9 pEC50.

How did the “hGLP1 pEC50 (cAMP)” value turn out when B6 was run?
The value was less than 9 pEC50.
